From publication PMC4876929 (Nature, 2015)
Residue numbers refer to the chain shown, from its start. Names may count otherwise. Like-named read-outs stand apart in the source and are kept apart here.

B1: Fluc channel from Bordetella pertussis (Bpe), R29K/E94C, Hg-labelled (natural protein)
chain: MLTYAPLNFIAIGIGATLGAWLRWVLGLKLNGAGWPWGTLTANLVGGYLIGVMVALIASHPEWPAWIRLAAVTGFLGGLTTFSTFSAETVDMLCRGVYATAAAYAGASLAGSLAMTGLGLATVRLLLR
modifications: Hg at the unique cysteine (E94C), labelled with Hg(II) acetate
B2: Fluc channel from Bordetella pertussis (Bpe), R29K/E94S (natural protein, UniProt Q7VYU0 1-128, looked up)
chain: B1 chain with C94S

Key:
[1] = molecular target: the molecule itself; experiment: crystal structure
[2] = molecular target: the molecule itself; experiment: crystal structure; remark: listed apart in the source

| Protein | stoichiometry N [1] | stoichiometry N [2] |
| --- | --- | --- |
| B1 | 2 | – |
| B2 | – | 2 |
